Data on five molecules can be found in patent US10590192B2, “Midkine antibody” (Cellmid Limited, priority 2014, dated 2020).

The target in assay [1] is T1, recombinant human MK (huMK) (Homo sapiens, UniProt P21741).
T1 sequence (P21741 21-143): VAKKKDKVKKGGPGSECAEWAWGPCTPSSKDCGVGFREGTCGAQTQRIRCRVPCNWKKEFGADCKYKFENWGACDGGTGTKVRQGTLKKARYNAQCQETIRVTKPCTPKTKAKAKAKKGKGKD
Briefly: ELISA binding of humanised anti-MK antibodies to huMK. The conditions noted are these: for binding affinity for huMK compared with murine IP14 precursor antibody: comparison in words; for EC50: ELISA, plates coated with 2 ug/mL huMK, read-out: Binding affinity for huMK, ELISA EC50. As to the method:
(§1) The binding specificity and affinity of the humanised anti-MK antibodies to recombinant human MK (huMK) and murine MK (muMK) was assessed by ELISA. ELISA plates (Nunc Immuno MaxiSorp 96 well flat-bottom were coated with 100 uL of 2 ug/mL of either huMK or muMK in 2% BSA/PBS (overnight at room temperature). After washing, blocking (1 h at 37° C.), and washing again, the humanised anti-MK and chimeric antibodies described in Example 1 were analysed for binding to huMK or muMK at concentrations ranging between 3 μg/ml and 0.00004 μg/ml in 2% BSA/PBS (1 h at 37° C.). After washing, the binding of antibody was detected with goat anti-mouse IgG (Fab specific)-HRP conjugate (Sigma, Cat. No. A9917) and SigmaFast OPD substrate (Sigma, Cat. No. P9187). The reaction was stopped with 3 M HCl, absorbance read at 490 nm on a Dynex Technologies MRX TC II plate reader and the binding curves plotted. Binding affinity data for the humanised anti-MK antibodies to huMK and muMK are presented in Table 6 and Table 7 respectively, and in FIG. 3.
(§2) KD values for hIP14-H5L8, hIP14-H6L3 and hIP14-H6L8 was then compared with the KD values obtained for the corresponding murine IP14 precursor antibody and the chimeric antibody using the methods described in Example 2. […] Based on this finding, these candidate antibodies were produced to 100 mg scale to enable further testing in functional assays to determine biological function.
In general terms: ELISA stands for enzyme-linked immunosorbent assay.

In a further assay the target is T2, human midkine protein (Homo sapiens, UniProt P21741).
T2 construct: human MK cDNAs comprising the MK coding region flanked by EcoRI restriction sites; made in house; host or cells: Pichia pastoris GS115 (clone T3L-50-4P), secreted into culture supernatant
T2 sequence (P21741 21-143): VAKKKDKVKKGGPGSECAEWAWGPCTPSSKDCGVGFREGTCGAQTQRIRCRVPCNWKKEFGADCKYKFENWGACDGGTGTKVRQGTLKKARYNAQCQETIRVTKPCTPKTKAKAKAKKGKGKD
Briefly: UMR106 cell migration inhibition assay (modified Boyden chamber). In kind it is cell-based, rat. The conditions noted are these: comparison in words. As for the experimental part:
Cell migration assays were performed for each of the preferred candidate humanised IP14 antibodies and the murine IP14 parent antibody to determine the ability of these antibodies to inhibit migration of UMR106 cells to midkine.
The UMR-106 rat osteosarcoma cell line was originally obtained from the American Type Culture Collection, PO Box 1549, Manassas, Va., USA as a frozen stock (catalog no. CRL-1661; batch no. 58494148).
The cells were maintained in: DMEM+Glutamax (DMEM, catalog no. 10569-010 500 mL, lot. no. 778325, Invitrogen/Gibco) supplemented with the following items: Penicillin (10,000 U/mL stock concentration)—Streptomycin (10,000 μg/mL stock concentration) (catalog no. 15140-122 100 mL, lot no. 730849, Invitrogen/Gibco) at a rate of 1 mL/200 mL of DMEM 10% fetal bovine serum (FBS, catalog no. 100099-141, lot no. 6955347Y, Invitrogen/Gibco). The DEM+Glutamax media containing 50 U/mL penicillin, 50 μg/mL streptomycin and 10% FBS is identified as Complete media in this report. The 10% FBS was replaced by 0.3% (w/v) bovine serum albumin (BSA) for the cell migration assays. The BSA was supplied by Sigma-Aldrich, catalog no. A-3192, lot no. 31K1264 and was formulated as a 15% (w/v) stock solution in D-PBS which was sterilized by passage through a 0.22 micron filter and stored at −20° C. prior to use. The cell cultures were maintained in T75 tissue culture-treated flasks in a humidified incubator at approximately 37° C. and 5% carbon dioxide. Cells were sub-cultured twice weekly at a sub-culture ratio ranging from approximately 1:8 to 1:20. Cells were dissociated from the flask by rinsing once with Dulbecco's phosphate buffered saline (DPBS, catalog no. 14190, lot no. 783715, Invitrogen/Gibco) and then incubated with 0.25% Trypsin-EDTA solution (Invitrogen/Gibco) at 37° C. for 2-5 minutes. The cells were then removed by addition of approximately 10 mL of Complete media. The experiments were completed using UMR-106 cells at ˜50 to 75% confluency on the day prior to assay. These cultures were washed once with DMEM and cultured overnight in DMEM containing 0.5% FBS. […]

The target of the next assay is T3, murine MK (muMK) (Mus musculus, UniProt P12025).
T3 sequence (P12025 23-140): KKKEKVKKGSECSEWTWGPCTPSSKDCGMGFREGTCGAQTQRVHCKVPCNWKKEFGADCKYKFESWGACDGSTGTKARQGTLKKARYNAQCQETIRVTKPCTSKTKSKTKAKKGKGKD
Briefly: ELISA binding of humanised anti-MK antibodies to muMK. As to conditions: for binding affinity for muMK compared with murine IP14 precursor antibody and chimeric antibody: comparison in words; for EC50: ELISA, plates coated with 2 ug/mL muMK, read-out: Binding affinity for muMK, ELISA EC50. As to the method: as §1, §2

“Also recorded” adds a separate entry of the source.

B1: IP14-H5L8: humanised IP14 antibody: VH SEQ ID NO: 6, VL SEQ ID NO: 17 (antibody, V domains shown)
VH: QVQLVQSGGGLVQPGGSLRLSCAASGQSFSSYWMNWVRQAPGQGLEWIGMIHPSDSETILNQKFKDKATLTVDISKNTAYLQMNSLRAEDTAVYYCSSWSAKRGDFWGQGTLVTVSS
VL: DIVLTQSPATLSLSPGERATLSCRASESISNNLHWYQQKPHQAPRLLIYYASQSISGVPARFSGSGSGTDFTLTISSVEPEDFAVYYCQQSNSWPLTFGQGTKVEIKR
modifications: Variable region heavy chain humanised variant 5 (VH5); Variable region light chain humanised variant 8 (VL8)
With B1, the “binding affinity for huMK compared with murine IP14 precursor antibody” value in assay [1] is “better binding affinity”. Also, the “inhibition of UMR-106 cell migration compared with murine IP14 precursor antibody” value with human midkine protein is recorded as “more effective; also recorded: greater efficacy”. Also, in the assay with murine MK (muMK), the “binding affinity for muMK compared with murine IP14 precursor antibody and chimeric antibody” value is reported as “better binding affinity”.

B2: IP14-H6L3: humanised IP14 antibody: VH SEQ ID NO: 7, VL SEQ ID NO: 12 (antibody, V domains shown)
VH: QVQLVQSGGGLVKPGHSLRLSCAASGQSFSSYWMNWVRQAPGKGLEWIGMIHPSDSETILNQKFKDKATLSVDIAKNSAYLQMNSLRAEDTAVYYCSSWSAKRGDFWGQGTLVTVSS
VL: DIVLTQSPATLSLSPGERATLSCRASESISNNLHWYQQKPGQAPRLLIYYASQSISGIPARFSGSGPGTDFTLTISSLEPEDFAVYYCQQSNSWPLTFGGGTKLEIKR
modifications: Variable region heavy chain humanised variant 6 (VH6); Variable region light chain humanised variant 3 (VL3)
On to B2, for which the “binding affinity for huMK compared with murine IP14 precursor antibody” value in assay [1] is recorded as “better binding affinity”. Further, in the assay with human midkine protein, the “inhibition of UMR-106 cell migration compared with murine IP14 precursor antibody” value was “more effective; also recorded: greater efficacy”. Besides, the “binding affinity for muMK compared with murine IP14 precursor antibody and chimeric antibody” value with murine MK (muMK) was “better binding affinity”.

B3: IP14-H4L7: humanised IP14 antibody: VH SEQ ID NO: 5, VL SEQ ID NO: 16 (antibody, V domains shown)
VH: QVQLVQSGAEVKKPGASVKVSCKASGYTFTSYYMHWVRQAPGQGLEWMGIIHPSGGSTSYAQKFQGRVTMTRDTSTSTVYMELSSLRSEDTAVYYCARWSAKRGDFWGQGTLVTVSS
VL: DIVLTQSPATLSLSPGERANLSCRASESISNNLHWYQQKPHQAPRLLIYYASQSISGVPARFSGSGSGTDFNLTISSVEPEDFAVYYCQQSNSWPLTFGQGTKVEIKR
modifications: Variable region heavy chain humanised variant 4 (VH4); Variable region light chain humanised variant 7 (VL7)
As to B3, the EC50 (in assay [1]; in the assay with murine MK (muMK)) was > 10 nM each time.

B4: IP14-H4L8: humanised IP14 antibody: VH SEQ ID NO: 5, VL SEQ ID NO: 17 (antibody, V domains shown)
VH: QVQLVQSGAEVKKPGASVKVSCKASGYTFTSYYMHWVRQAPGQGLEWMGIIHPSGGSTSYAQKFQGRVTMTRDTSTSTVYMELSSLRSEDTAVYYCARWSAKRGDFWGQGTLVTVSS
VL: DIVLTQSPATLSLSPGERATLSCRASESISNNLHWYQQKPHQAPRLLIYYASQSISGVPARFSGSGSGTDFTLTISSVEPEDFAVYYCQQSNSWPLTFGQGTKVEIKR
modifications: Variable region heavy chain humanised variant 4 (VH4); Variable region light chain humanised variant 8 (VL8)
Take B4: the EC50 (in assay [1]; with murine MK (muMK)) was > 10 nM each time.

B5: IP14-H6L8: humanised IP14 antibody: VH SEQ ID NO: 7, VL SEQ ID NO: 17 (antibody, V domains shown)
VH: QVQLVQSGGGLVKPGHSLRLSCAASGQSFSSYWMNWVRQAPGKGLEWIGMIHPSDSETILNQKFKDKATLSVDIAKNSAYLQMNSLRAEDTAVYYCSSWSAKRGDFWGQGTLVTVSS
VL: DIVLTQSPATLSLSPGERATLSCRASESISNNLHWYQQKPHQAPRLLIYYASQSISGVPARFSGSGSGTDFTLTISSVEPEDFAVYYCQQSNSWPLTFGQGTKVEIKR
modifications: Variable region heavy chain humanised variant 6 (VH6); Variable region light chain humanised variant 8 (VL8)
As for B5, the “binding affinity for huMK compared with murine IP14 precursor antibody” value in assay [1] is listed as “better binding affinity”. For the same molecule, the “inhibition of UMR-106 cell migration compared with murine IP14 precursor antibody” value with human midkine protein is “more effective; also recorded: greater efficacy”. Also, the “binding affinity for muMK compared with murine IP14 precursor antibody and chimeric antibody” value with murine MK (muMK) was “better binding affinity”.

A word on the EC50: it is the midpoint of the concentration-response curve.
